Experimental data from the PETadex activity labels.

Substrate: BHET
Details: 120 h

B1: unnamed (protein)
chain: MPMYKLNHVFFAVALAACSALGCAEGSDGSTVSTGGDGVGGGAGETDLPAGAGGTAGVGGAAGSVDPSDIAGTGGSAGTAGETVAGSSGVPVAGTGGIPVAGSGGTGIVDSGGIGGGGAGGTLENNNFIRGPAPTAQSASQAGPYDVQSTTQGLRDPAEYGTQTLWYPTDAEPPFAAIAIVPGFVSPEGSIANWGPFLASHGIVVLTIGTNTGGDLPEVRSAALLAALDTIKAEHTRQGSPIEGKIDTGKLAVGGWSMGGGGTLLTITAHPELKAGLGICPWYMNAFAFAGNTVPVIMFAGTMDVLAGGMSQGFYDAIPASTPKMLFEIAGADHFYANDPLNVANPFTVQVGLYGLSWLKVFLEGDDRYRQFLLNPPQNASDFRTTVK
- plate clearing: not clears the plate

B2: unnamed (protein)
chain: MQRQTCTTPVGPFHPQETSPMTLTSTLQRFAGIRPFALALPLAAIGWVAQAQTNPPTSSLLNATAGPLTVSTSSVSSFAARGFGGGTIYYPDATGSYGVVAISPGYTARQSSIAWLGRRLATHGFVVITIDTNSTLDQPPSRATQLMAALGHVVNNANATVRSRVDASKQAVAGHSMGGGGSLIAAQNNPTLKAAYPLTPWSVSKNYGTVRVPTMIIGADGDTIAAVTTHSRAFYNSLSSTVFKAYGELNNASHFTPNSTNTPIGRYAVSWMKRFVDSDTRYSPFLCGAPHDSYATRTVFDRYERNCPY
- plate clearing: not clears the plate

B3: unnamed (protein)
chain: MRPTRCPSRATSPLRSRSRVLAVLIVMATTLASTLLTVSVTPAATAARQSQSRSVAGSSSEHASVRATIPDPTTASLEATNGPLAIATYTVPQPSGYGSGTITYPTARGSYPAVVLMPGYQGTQQNLQWVAPRLASWGFIVINVGTKTLGDDPASRGRQISAAGTQLLSLGSVAGNPLYGKMNGTLGAAGHSMGGGGVMAALREDSRFTAGMPLAPYYPNQNFSGVTDPTFFLTCKSDPVAHGNTYALPWYNSMSQAEKLYIEVPGDHLCPMTGYGNKAKQGKWIVSFFSRWLYGDTRFSPFLCGAAREADKNNPSLVTRWQDTCPF
- plate clearing: not clears the plate

B4: unnamed (protein)
chain: MKKSILEKIAVGTGALLFSVSAFSFTPSPTPDPDPDPDPTPCQGECDFTRGPNPTSSYLEASRGPYTVRNVSVSRSVSGFGGGTIHYPTNTTGTMGAIAIVPGFLAGESSISWWGPRLASHGFVVITIATNSTFDQPASRETQLGRALDYLVSQSNSSSSPISGKVDSARLGAMGWSMGGGGTLRLASGSRLVAAIPLAPWHSGSNNFNRIQTPTMIIACENDTTAAVRSHASPFYNSIPSSTDKAFLEINNGSHSCANGGGSNGGLLGKYGVSWMKRFMDQDTRYNQFLCGPNHAANSAISEYRETCNY
- plate clearing: not clears the plate

B5: unnamed (protein)
chain: MKTIARWQRRCAVGLGLLLLAAAAQSQTNPFQKGPDPTSTILNATAGPFAVATASVPSSVAGFGGGTVYYPTTAGSYAALALCPGFTATQSSIAWIGRRLATHGFVVITINTNSTFDQPPSRATQLMAALRYLTNSSSTTVRSRIDANRLGVGGHSMGGGGTLMATRDNPSLKVGIPMTPWSSTKSFSTVRVPTIIFGGENDTVAPVSSHSIPFYTSLPSSLDKAYAELNGASHFAPNSTNTPIGRYAVSWAKRFMDNDTRYDTFLCGSAHTAFATPAVFSDYRSTCPY
- plate clearing: not clears the plate

B6: unnamed (protein)
chain: MRKIASALEIAALVLASFAAGCGDDGSSNDNPMGMTTQTANTGTPDTGVSTMVPPASTDAGTSTNVGNTNTGTLDAGMVGSTTGIKPAVDSGAVDTGVALGDASSDSGSVAVGDGGGVISPVTPIMRGDAPTKASATAKGPYKVMSYTSGFPVTLYGGGTIWYPTDAEAPFGAVAICPGFTAAQSSIMNWGPFLASHGIVALTMDTATPLDVVDQRADELMDALASIKSENDRAASPIYKKIDTMRLGVMGWSMGGGGTWLAADMHPELRSAVTFAGHIVTAVNQDVSMVHVPTLMFAGSADNAILGGGMSQGVYDGIPESTPKMVWEIMGAGHDVANDPANTSGAVGRYGLSWEKVYLEGDMRYRQFLLEMPPTASYFKTNVK
- plate clearing: not clears the plate

B7: unnamed (protein)
chain: MHAVTSLGFVRASTAPGGRGWRRLAWALALGCGLGVGTTASYAQATGPNPSSAFLNASAGPLRVATESVSSFVTGFGGGTIYYPSTAGRYGVIAISPGFTATESSVAWLGRRLASHGFVAIVINTNSTLDQPASRATQLMAALRHATTGASSTVRARIDSTRQAVAGHSMGGGGTLIAAEDNPTLKAAIPLTPWNLSTSFNGVRVPTLIVGADGDTVASVAVHARPFYASLPASTFKAYAELNGASHFAPNTTNTPIGRYSVAWAKRFIDGDTRYSPFLCGAEHRAYATAAVFDRYNQNCPY
- plate clearing: not clears the plate
